Measurements published in US20070185311A1 (EPIX MEDICAL INC A DELAWARE, published 2007).
Starred links: 1 amine or outer side, 2 acyl side, 3 side chain; linkers in the order of their positions; H or OH if unused. Positions of bridges follow the written chain, without caps; N, C: chain ends. Non-standard residues stand in square brackets, D forms with d. No end group written: not given here. 4‑methoxycoumarin = 4-Methoxycoumarin, an N-terminal optical probe label; Phe(4-OMe) = COc1ccc(C[C@H](N[*:1])C(=O)[*:2])cc1; Ser(Bzl) = O=C([C@H](COCc1ccccc1)N[*:1])[*:2]; Tyr(3-Cl) = N[C@@H](Cc1ccc(O)c(Cl)c1)C(=O)O; Bip = N[C@@H](Cc1ccc(-c2ccccc2)cc1)C(=O)O; Tyr(3-I) = N[C@@H](Cc1ccc(O)c(I)c1)C(=O)O; 2Nal = N[C@@H](Cc1ccc2ccccc2c1)C(=O)O; Hyp = O=C(O)[C@@H]1C[C@@H](O)CN1; Cha = N[C@@H](CC1CCCCC1)C(=O)O; Ahx = NCCCCCC(=O)O; βAla = NCCC(=O)O

T1: DD(E) fragment of fibrin
T1 chain 1: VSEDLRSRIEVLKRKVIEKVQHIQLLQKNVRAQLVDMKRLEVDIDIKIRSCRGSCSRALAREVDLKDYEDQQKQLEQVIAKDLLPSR
T1 chain 2: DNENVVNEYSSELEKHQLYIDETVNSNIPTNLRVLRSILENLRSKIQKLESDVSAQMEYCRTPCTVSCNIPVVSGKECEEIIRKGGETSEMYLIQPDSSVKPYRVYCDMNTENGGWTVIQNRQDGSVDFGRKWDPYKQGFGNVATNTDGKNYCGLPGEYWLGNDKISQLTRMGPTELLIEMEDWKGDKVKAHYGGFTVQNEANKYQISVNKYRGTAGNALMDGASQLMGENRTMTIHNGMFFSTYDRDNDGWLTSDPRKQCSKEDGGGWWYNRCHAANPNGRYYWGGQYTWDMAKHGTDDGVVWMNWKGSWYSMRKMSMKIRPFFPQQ
T1 chain 3: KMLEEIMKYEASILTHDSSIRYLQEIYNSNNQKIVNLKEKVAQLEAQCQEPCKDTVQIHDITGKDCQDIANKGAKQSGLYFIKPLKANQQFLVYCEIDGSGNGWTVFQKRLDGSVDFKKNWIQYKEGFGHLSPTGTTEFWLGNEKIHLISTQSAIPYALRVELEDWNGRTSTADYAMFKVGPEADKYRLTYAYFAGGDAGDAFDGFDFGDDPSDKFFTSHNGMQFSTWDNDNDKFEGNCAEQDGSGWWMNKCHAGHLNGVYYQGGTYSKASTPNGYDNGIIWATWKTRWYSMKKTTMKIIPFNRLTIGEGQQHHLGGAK
T1 chain 4: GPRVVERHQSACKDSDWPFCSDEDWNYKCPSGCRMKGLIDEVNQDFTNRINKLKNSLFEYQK
T1 chain 5: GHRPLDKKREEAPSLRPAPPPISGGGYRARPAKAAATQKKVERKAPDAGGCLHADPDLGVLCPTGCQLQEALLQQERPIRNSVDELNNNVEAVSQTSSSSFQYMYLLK
T1 chain 6: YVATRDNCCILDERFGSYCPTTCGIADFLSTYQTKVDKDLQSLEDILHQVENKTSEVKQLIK


molecular target: DD(E) fragment of fibrin; assay: affinity of the unlabelled peptide; target taken as fibrin DD(E) fragment

Kd [nM]	Molecule
3000	QWECPYGLCWIQ […]

Molecular target: T1, DD(E) fragment of fibrin
Assay: affinity of optical contrast agent to fibrin DD(E) fragment

Kd [nM]	Molecule
90	fluorescein-[Ahx]GGFHC[Hyp][Tyr(3-I)]DLCHI (disulfide 6-11 (inferred)) [Structure E: Fluor-Ahx-G-G-F-H-C-Hyp-Y(3-I)-D-L-C-H-I]
61	fluorescein-[Ahx]WFHC[Hyp][Tyr(3-I)]DLCHI (disulfide 5-10 (inferred)) [Structure D: Fluor-Ahx-W-F-H-C-Hyp-Y(3-I)-D-L-C-H-I]
212	fluorescein-KFHC[Hyp][Tyr(3-I)]DLCHI (disulfide 4-9 (inferred)) [Structure F: Fluor-K-F-H-C-Hyp-Y(3-I)-D-L-C-H-I]
119	fluorescein-KWFHC[Hyp][Tyr(3-I)]DLCHI (disulfide 5-10 (inferred)) [Structure H: Fluor-K-W-F-H-C-Hyp-Y(3-I)-D-L-C-H-I]
60	fluorescein-WFHCPYDLCHIL (disulfide 4-9 (inferred)) [Structure K: Fluor-W-F-H-C-P-Y-D-L-C-H-I-L]
97	fluorescein-[Ahx]GFHC[Hyp][Tyr(3-I)]DLCHI (disulfide 5-10 (inferred)) [Structure C: Fluor-Ahx-G-F-H-C-Hyp-Y(3-I)-D-L-C-H-I]

molecular target: DD(E) fragment of fibrin; assay: as above

Kd [nM]	Molecule
55	Structure J: Fluor-Q-W-E-C-P-Y-G-L-C-W-I-Q (peptide)
99	fluorescein-[Ahx]FHC[Hyp][Tyr(3-I)]DLCHI (disulfide 4-9 (inferred)) [Structure B: Fluor-Ahx-F-H-C-Hyp-Y(3-I)-D-L-C-H-I]
136	fluorescein-[βAla]FHC[Hyp][Tyr(3-I)]DLCHI (disulfide 4-9 (inferred)) [Structure A: Fluor-beta-A-F-H-C-Hyp-Y(3-I)-D-L-C-H-I]

Molecular target: T1, DD(E) fragment of fibrin
Assay: affinity to DD(E) fragment of fibrin

Kd [nM]	Molecule
≤ 300	WEC[Hyp][Tyr(3-Cl)]GLCYIQ (disulfide 3-8 (inferred)) [W-E-C-Hyp-Y(3-Cl)-G-L-C-Y-I-Q]
≤ 200	YEC[Hyp][Tyr(3-Cl)]GLCYIQ (disulfide 3-8 (inferred)) [Y-E-C-Hyp-Y(3-Cl)-G-L-C-Y-I-Q]
≤ 200	T[dE]C[Hyp][Tyr(3-Cl)]GLCWIQ (disulfide 3-8 (inferred)) [T-(D-E)-C-Hyp-Y(3-Cl)-G-L-C-W-I-Q]
≤ 200	WEC[Hyp][Tyr(3-Cl)]GLCHIQ (disulfide 3-8 (inferred)) [W-E-C-Hyp-Y(3-Cl)-G-L-C-H-I-Q]
≤ 400	FHC[Hyp][Tyr(3-Cl)]GLCHIL (disulfide 3-8 (inferred)) [F-H-C-Hyp-Y(3-Cl)-G-L-C-H-I-L]
≤ 500	[Phe(4-OMe)]WC[Hyp][Tyr(3-I)]DLCHI (disulfide 3-8 (inferred)) [F(4-OMe)-W-C-Hyp-Y(3-I)-D-L-C-H-I]
≤ 200	WEC[Hyp][Tyr(3-Cl)]GLCFIQ (disulfide 3-8 (inferred)) [W-E-C-Hyp-Y(3-Cl)-G-L-C-F-I-Q]
≤ 400	HEC[Hyp][Tyr(3-Cl)]GLCHIQ (disulfide 3-8 (inferred)) [H-E-C-Hyp-Y(3-Cl)-G-L-C-H-I-Q]
≤ 200	H[dE]C[Hyp][Tyr(3-Cl)]GLCWIQ (disulfide 3-8 (inferred)) [H-(D-E)-C-Hyp-Y(3-Cl)-G-L-C-W-I-Q]
≤ 200	S[dE]C[Hyp][Tyr(3-Cl)]GLCWIQ (disulfide 3-8 (inferred)) [S-(D-E)-C-Hyp-Y(3-Cl)-G-L-C-W-I-Q]
≤ 500	FHC[Hyp][Tyr(3-Cl)]FLCHIL (disulfide 3-8 (inferred)) [F-H-C-Hyp-Y(3-Cl)-F-L-C-H-I-L]
≤ 400	[Ser(Bzl)]HCPYDLCHIL (disulfide 3-8 (inferred)) [S(Bzl)-H-C-P-Y-D-L-C-H-I-L]
≤ 500	FHC[Hyp][Tyr(3-Cl)][2Nal]LCHIL (disulfide 3-8 (inferred)) [F-H-C-Hyp-Y(3-Cl)-(2-Nal)-L-C-H-I-L]

molecular target: fibrin; assay: Fibrin Affinity; method not stated

Ki [nM]	Molecule
4700	QWECPYGLCWIQ […]

Molecular target: T1, DD(E) fragment of fibrin
Assay: affinity to DD(E) fragment of fibrin
Remark: another data set of the same source

Kd [nM]	Molecule
≤ 10000	[Cha]PCDYYGTC[Bip]D (cysteine pairing not given here) [Cha-P-C-D-Y-Y-G-T-C-Bip-D]
≤ 10000	LPCDYYGTCLD (not fully specified; cysteine pairing not given here) [L-P-C-D-Y-Y-G-T-C-L-D]

molecular target: DD(E) fragment of fibrin; assay: affinity to soluble fibrin DD(E) fragment

Kd [nM]	Molecule
4700	LPCDYYGTCXD (not fully specified; Bip at 10; cyclized with thallium trifluoroacetate; C-terminus as -CO-NHCH2C6H4CH2NH2; Synthon #2 (bb(CO)DTPA chelates, Gd) coupled to the N- and C-terminal amines) [Compound 32]

molecular target: DD(E) fragment of fibrin; assay: affinity of fluorophore-labelled peptide; target taken as fibrin DD(E) fragment

Kd [nM]	Molecule
60	Structure J: Fluor-Q-W-E-C-P-Y-G-L-C-W-I-Q (peptide)
2000	tetramethylrhodamine-QWECPYGLCWIQ (cysteine pairing not given here) [Compound L: tetramethylrhodamine derivative of …]
200	{4‑methoxycoumarin}-QWECPYGLCWIQ (cysteine pairing not given here) [Compound N: 4-methoxycoumarin derivative of …]
